Measurements published in the DeepSol protein solubility set.

Assay: soluble on expression in E. coli; label from the status in PepcDB or PDB records

Row | Sequence | soluble on expression in E. coli
1 | MKKDAKDHARNRLMDCYIKKAPTYAAIVKIEHFENDDASSKDFEPFVVYSLNKKKRWEINEESLNSSTEGTSTKSVIIDREIPDLQDSWWCLQNDLLNNCIYHSNPVNSAQMATAKKYEKVIGYHIVRIPVNHKKVFDKKCTRDLSYRYRDSIGNVPRDLTVLQYEMKEVEHGKEDFAKENISPEVNNPSKTIGFYNLEEHFVARKQQKSKGWLTVN | not soluble
2 | MNIKLYYVHDPMCSWCWGYKPTIEKLKQQLPGVIQFEYVVGGLAPDTNLPMPPEMQQKLEGIWKQIETQLGTKFNYDFWKLCTPVRSTYQSCRAVIAAGFQDSYEQMLEAIQHAYYLRAMPPHEEATHLQLAKEIGLNVQQFKNDMDGTLLEGVFQDQLSLAKSLGVNSYPSLVLQINDAYFPIEVDYLSTEPTLKLIRERIIENMSAQ | soluble
3 | MARQHRLRAGRPVAAEACMSGGETGRTLRALFMSVSLGAGHDQAQQAVKQAFAERGVELLGAEHDSVEYLSTFERSFTVDLYEFELRYAPWLYRGFYWLTDQDQPWNIISRMFTWLGMGAFKDELRELRPEVVINSFWAPAAVCDTLRAQTGQRFLNCLIVTDYRAHLHWARRETDLLMVASEETRRQMLERGVRPEQVEVTGIPISPAFREVLAADRWALRAELFSEMSLRPGVPLLLLSGGGRGHYAAAADVLTELGNLGRAVQVLVPASRQGEGTETIGGATVHHLGFRRDLPRLLAASDLVVGKAGGLTVAEATALGVPLVIYAPIPGQEEHNADFLERHGAGLWARARHDVRPLVLRALDPAEHARLSAGARAVGIPDAADRVAGAILRRLGDGLGDELGDSRGPA | not soluble
4 | MTLRTKDGLTLYTRRWDVESPRAVICLVHGLGEHSGRYEHVARFFNENGISFAAFDLRGHGRSEGKRGHAEYQQLMDDITLFLQSLDYDCPKILYGHSMGGNLALNYILRYDPDIAGGIISAPFLALPKELPKHLFFILKLLNVVAPSIQLSNGIDPNLISRDREVVEAYVSDPLVHDKISPRFILQSLEAGKWALENADRLRKPILLIHGTADQITSYRASQEFAKRAGELCKFVSYEGFYHEPHNEPEKERVLADMLKWIEEVI | not soluble
5 | MGSSHHHHHHSSGLVPRGSSGHVGLRNLGNTCFLNAVLQCLSSTRPLRDFCLRRDFRQEVPGGGRAQELTEAFADVIGALWHPDSCEAVNPTRFRAVFQKYVPSFSGYSQQDAQEFLKLLMERLHLEINRRGRRAPPILANGPVPSPPRRGGALLEEPELSDDDRANLMWKRYLEREDSKIVDLFVGQLKSCLKCQACGYRSTTFEVFCDLSLPIPKKGFAGGKVSLRDCFNLFTKEEELESENAPVCDRCRQKTRSTKKLTVQRFPRILVLHLNRFSASRGSIKKSSVGVDFPLQRLSLGDFASDKAGSPVYQLYALCNHSGSVHYGHYTALCRCQTGWHVYNDSRVSPVSENQVASSEGYVLFYQLMQEPP | soluble
6 | MSLIGKHFIITGATSGLGFAITNELLQRGAHVTILARNIDKFNRIKENYFKPEHINVIKCDLMQRKDIESLQKFLNTPINGFIYSSGVGYFKSISEHSTREVVETYEVNLTNFNLLYKVIQPQLVKAAYIVGISSQAALVSQANAAHYGASKAGFSAVLNALRLEQPELKVLNVQPGPIDTPFQKNADPTLKYFKNYRHMMIQPQQLAKQIVEGIILNKIEINQPSWMQEGHHHHHH | not soluble
7 | MGSDKIHHHHHHMEVIFKRPKALSDREFTYCPGCHHGIIHRLIAEVIDELDIQEKTIMVAPVGCSVFAYEFFDVDGTVAPHGRALAVATGIKRALPDMIVFTYQGDGDLAAIGIAETIHAANRGEKLTTIFVNNAVYGMTGGQMAPTTLLGQKTTTTPYGRTAANDGYPLHVSEALSTIDGVAYLERTTVSTTKDILNTKKAIKKAFLAQIKGLGFGMVEVLSTCPTNWGMSPVEAQNWLLENMVKEFPPKVFVDKVGD | not soluble
8 | MGKIGIFFGTDSGNAEAIAEKISKAIGNAEVVDVAKASKEQFNSFTKVILVAPTAGAGDLQTDWEDFLGTLEASDFANKTIGLVGLGDQDTYSETFAEGIFHIYEKAKAGKVVGQTSTDGYHFEASKAVEGGKFVGLVIDEDNQDDLTDERISKWVEQVKGSFA | soluble
9 | MSENENSQEKNELLDALNSVEEVNVGDVVKGEVLAIDDDKQVIVGIQGTGVEGVVPLKELSTQRVDDVNEAAKVGDVLDLVVISRIGSDKENGSYLLSHRRLEARKVWDDVEKEYEAGHTIKAPVTQVVKGGLVVDAGVRGFIPASMIDDHYVEDLNAYKGQELELKIIEIEPSENRLILSHRAVVEKQREAQREEALKTLQAGDVVEGKVARLTNFGAFVDLGGIDGLVHVSEISYERVEKPADVLKVGQEVTVKILSVDADRERVSLSIKATLPEPWDGIEEKAPQGAVLDGKVKRLTSFGAFVEVFPGVEGLVHISQISHQHIATPNDVLKVGQEIKVKVLDVRPDEKRLALSIKALEEKPQTADDDNESQPERRSNNNRRRNNNRDNRTASERSTANAPEESTGFTLGDLIGDELKNAESNNDENLEHHHHHH | not soluble
10 | MTRQGWLVPCLSHGKDDQLQDELSELSKAYRKKFQTDLHTKSGDIIDPSGEFLYVYLDEENYRICRQSMVLVSNAPDGLIATTLEPYSDSYTFRQVREQLQAFSGDGGRINYSRNEHSSSYFLTIQASNEFKHVGAVRNTFGQSKDIWKRRMPDASQPLDYHLIAVGCSAFLPEAALDDVESDGAVLEHHHHHH | not soluble
11 | MAHHHHHHMVQLTINNARGVTLCRVSLPANATVQQLLLQLTVAKPELRQAQAIRNDVRHVTHRLTPASTTTTTTTSVVSSNAQTLLQAGLVGQGATAETLVVLMAADAPAAASSAAAAAPSPTKAVAAQILDLFGCASASPSAGVRSQASVVPSTMDERQLELQRRIYAQIQQQQIDENLANALEYTPEAFAKVTMLYVPCTINQVLVKAFVDSGAQNSIMNKRTAERCGLMRLVDVRMRGVAVGVGRQEICGRIHMTPVNLAGMYIPFAFYVIEDQAMDLIIGLDQLKRHQMMIDLKHNCLTIDNINVPFLPENDLPALAALGDDENAMHAPRHQDPATTATTASNPAAPVLSEGERQARIEGFMTVSGITDPTQAAELLEAADWNPNVAAALLFDT | soluble
12 | MALWVDKYRPKDLLGKDGVDYHIEQANHLKFLSADCMPHLLFCGPSGAGKKTRIKCLLRELYGVGVEKTQLIMKSFTSPSNKKLEIQTVSSNYHIEMTPSDVGIYDRVVVQDLVKEMAQTSQIESTSQRSFKVVVLCEADSLTRDAQHGLRRTMEKYANNCKIVLSCESLSRIIEPLQSRCIIINVPAPTDEDVTKVLRKVIERESFLLPENVLQKIVEKSEGNLRRAILMTEALRMENESGVAESVVIPVPEWEIYIQETARLILQKQSSDMLLKVRERLYELLSRCIPPTVIFKKLLEHLLPKCPPQIAREVVSEAAKFEHRLVLGQKAIFHLEGFVAAFMDIYLTNASKPK | not soluble
13 | MAHHHHHHMEVAFTISPGERQHVEYLADLFAIILAIEKVEKATLRDIITQEQYSSTITRLLDKYKSTVTYLEQSRNPFYSTIDSFWENYGSRCPAARTRIQLSFDDAKQQQQQQQDSDVNGTVDPRLVLECGQHFITLMDSLKLQQTAVDQLYTLLADLVRGLQRLGVTDQSFFHRLTTWKEKFDTMNASDELSERDTREFAFVLECGYQAFHAYLSESSARRPKA | not soluble
14 | MGCMKSKETFPFPTTLDIDKLHESEEAFIPDDSSQYRTPSPGEQQQVQEVKKLPEPGAVIGALILEFADRLASEIVEDALQQWACENIQYYNIPYIESEGSDTTIN | soluble
15 | MTETPMMDDLERVLYNQDDIQKRIRELAAELTEFYEDKNPVMICVLTGAVFFYTDLLKHLDFQLEPDYIICSSYSGTKSTGNLTISKDLKTNIEGRHVLVVEDIIDTGLTMYQLLNNLQMRKPASLKVCTLCDKDIGKKAYDVPIDYCGFVVENRYIIGYGFDFHNKYRNLPVIGILKESVYT | soluble
16 | MNRKAFLACVLMCVILTGCETAKKISEVIKNPDIQVGSLKEQPSEITVTLLTEPDTNTNAEGESAAVDVQLVYLTDDSKLQAADYDQIASTPLPDVLGKNYIDHQDFNLLPDTIKTLPPIKLDEKTQFIGVVAYFSDDQATEWKQIETVEGTGHHYRLLVHVRQSSIEMKKEDE | soluble
17 | MAELKLEHIKKTYDNNNTVVKDFNLHITDKEFIVFVGPSGCGKSTTLRMVAGLESITSGDFYIDGERMNDVEPKNRDIAMVFQNYALYPHMTVFENMAFGLKLRKVNKKEIEQKVNEAAEILGLTEYLGRKPKALSGGQRQRVALGRAIVRDAKVFLMDEPLSNLDAKLRVQMRTEILKLHKRLNTTTIYVTHDQTEALTMASRIVVLKDGDIMQVGTPREIYDAPNCIFVAQFIGSPAMNMLNATVEMDGLKVGTHHFKLHNKKFEKLKAAGYLDKEIILGIRAEDIHEEPIFIQTSPETQFESEVVVSELLGSEIMVHSTFQGMELISKLDSRTQVMANDKITLAFDMNKCHFFDEKTGNRIV | not soluble
18 | MLQLLLFLIFCSFTNASSCQDKSPYCNPNDCEVRPGYAMVYCRKTCGNCADFCEDSKFITCSAERKKDCDDMLSDYCPRLCGKCYAKLKPDSKRTKTIPVTQFKRNPAATSTTTTTTRSPSIRMKQPRMLPNGTFINPPLPKYEKLDDTTYTIPEHPTVIDYPIAHMEELMIPEPQRIWPEPEPMRIEPISVYSPYSFVPVQPQVSQPYSPWSPTLGLSSSLDSSRRAPQNYFSSYSQYPQYPDEKLNTIAPNPMQLVEPFLTPGQNDLNPKSMSSLINLLGCKDKDEVICKHVTADTCLSRPGYYLKLCPVTCKNCSGYQCIDSIKIDCAEVKAQGACKLSVASEYCPRTCEYCNPPSDMAKTMSDCKDELETCEQLAESGACQHDFR | not soluble
19 | MRILVTNDDGIYSPGLWALAEAASQFGEVFVAAPDTEQSAAGHAITIAHPVRAYPHPSPLHAPHFPAYRVRGTPADCVALGLHLFGPVDLVLSGVNLGSNLGHEIWHSGTVAAAKQGYLFGLSAAAFSVPLNGEVPDFAGLRPWLLRTLETLLRLERPFLVNVNLPLRPKGFLWTRQSVRAYEGVVIPGEDPMGRPFYWFAPRPLKEAEEGTDRWAVAQGFVSATPLRLDLTDETRLQPTLAHD | soluble
20 | MASTRPDNVLVWMASRGSYVESMPGTILRIKNASKFGENLYGFKDQPGELVEVTWDAMFKLRPTLVEVDFGRNPCDELVKVIEKNYNNEQISHFFEKVKALSLHMTDITSESLLKLMDKFTLLAAFSFSETKFSTPEWATILKRLSELNLRGIDLSDNILSEVQQHIDVSLMKLSGNPGVDVNEFKKGIEFVTVKVLAVQELKFLGETDAEQLLEVLPQSFPRLETLIWDWNVVDPELNFDERTKKVLDQLLFVNKQLNLGSLAVVAYTPNPETKTAIESVARTLKGSIKDVQLHQFATKGLSDGMANFSLIVAGNNEKAMKELMDMYMVDRSTMPPMGKLLRLCEEDIVPIYPAITMDFGGFNKNRIRQLYTESPTD | not soluble
21 | MQGFASQPESSYWYPETLLDWSPETDPDARFNRSSIPLREREVLYTVNDTQQTDAKLVALSALNPNTSGVPSQGGNEFFANTFGFWQYVDLMVYWAGSAGEGIITPPSGDVIDAAHRNGVPILGNVFFPPKVYGGQEEWVDKMLVRGEDGSFPAADKLLEVAEYYGFDGWFINQETEGGTPETAKDMQEFLLYLQENKPEGMHIMWYDSMISNGDIRWQNYLTDENAMFFQAGNRKVADSMFLNFWWWNHSQERSKQKAASLGRSPYDLYAGIDVEANGTNTYVNWQQVFPEGGEPHTSLGIYRPDWAFKSTDTMRDFYDREQLFWVGPSGNPAKVDEHAEWKGMATYFPEKTVINELPFVTHFNTGSGQFFAINGKTKLEHHHHHH | not soluble
22 | MGFDFLGFTVRQFPVGKYHSGKSSSGKLLGYKTLITPSKAKLKIHAQKIGKLIDEHKAVPQSDLIAHLNPVIRGWTNYYSCVVSKRIFNQADTTLFSQLKAWAEHRHPNKSSRWSCQKYWQTVGSDNWVFKPHNQKIRLLKHRETRLEHHHHHH | soluble
